Experimental data taken from patent publication US20140065069A1, “Materials and Methods Relating to Cardiovascular Imaging” (KING'S COLLEGE LONDON, priority 2011, published 2014).
Entries after “also recorded” stand apart in the source; their conditions may differ. No end group written: not given here.

Tests used:
[1] = biological target: T1, tropoelastin (Mus musculus, UniProt P54320); experiment: In vivo imaging of plaques in HFD fed ApoE−/− mice with gadolinium labelled conjugates; conditions: gadolinium labelled conjugate
T1 construct: from tissue; host or cells: plaque-laden brachiocephalic artery and aortic arch of living HFD-fed ApoE-/- mice
T1 sequence (P54320 28-860): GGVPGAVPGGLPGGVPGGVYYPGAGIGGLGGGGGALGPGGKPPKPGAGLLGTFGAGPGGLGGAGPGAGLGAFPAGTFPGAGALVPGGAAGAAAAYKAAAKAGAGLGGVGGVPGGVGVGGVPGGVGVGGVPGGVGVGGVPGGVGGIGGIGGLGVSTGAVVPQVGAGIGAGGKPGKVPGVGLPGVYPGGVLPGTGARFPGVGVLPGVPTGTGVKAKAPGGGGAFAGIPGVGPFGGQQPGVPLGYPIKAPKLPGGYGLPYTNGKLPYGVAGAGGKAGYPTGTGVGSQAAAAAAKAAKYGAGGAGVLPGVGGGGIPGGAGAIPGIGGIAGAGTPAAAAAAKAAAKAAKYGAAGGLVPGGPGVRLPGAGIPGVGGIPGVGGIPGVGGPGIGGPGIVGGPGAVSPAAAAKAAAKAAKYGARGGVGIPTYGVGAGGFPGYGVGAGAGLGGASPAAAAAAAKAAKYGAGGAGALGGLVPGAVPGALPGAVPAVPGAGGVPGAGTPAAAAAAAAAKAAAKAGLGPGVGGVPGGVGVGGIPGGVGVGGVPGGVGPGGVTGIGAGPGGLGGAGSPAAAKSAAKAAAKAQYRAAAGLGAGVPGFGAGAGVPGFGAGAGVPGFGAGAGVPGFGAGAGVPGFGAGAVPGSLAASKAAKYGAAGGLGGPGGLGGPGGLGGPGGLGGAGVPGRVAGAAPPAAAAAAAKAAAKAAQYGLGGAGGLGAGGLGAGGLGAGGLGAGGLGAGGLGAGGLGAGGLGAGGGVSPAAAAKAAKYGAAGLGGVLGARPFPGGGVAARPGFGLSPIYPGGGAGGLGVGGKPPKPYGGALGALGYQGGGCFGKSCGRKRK
From the text: MRI will be performed in a mouse model of progressive atherosclerosis at 4, 8 and 12 weeks post commencement of a high fat diet and in a model of angiotensin-II (Ang-II) induced aortic aneurysm formation at 1, 2, 3 and 4 weeks post Ang-II releasing mini pump implantation. Ten mice will be scanned at each time point either receiving the tropoelastin or TNF-alpha binding contrast agent (CA) resulting in a total of […], respectively. Animals will undergo a pre and post contrast MRI session at each time point and subsequently will be sacrificed for validation with histology, immunostaining, electron and mass spectroscopy.

| Substance | uptake in plaque-free carotid artery [1] | uptake in plaque-laden brachiocephalic artery (BCA) and aortic arch [1] | time of imaging post contrast injection (12 weeks HFD fed ApoE−/− mice) | biodistribution (HFD fed ApoE−/− mice) | renal clearance (HFD fed ApoE−/− mice) |
| --- | --- | --- | --- | --- | --- |
| K(DOTA-Gd)-YPDHVQYTHY (not fully specified (N-terminus); printed as K(DOTA-Gd)-YPDHVQYTHY; also: Gd complexed by DOTA on the N-terminal Lys) [K-(DOTA-Gd)-YPDHVQYTHY] | no uptake | preferential uptake |  |  |  |
| (DOTA-Gd)-VVGSPSAQDEASPLS (not fully specified (N-terminus); printed as (DOTA-Gd)-VVGSPSAQDEASPLS; also: Gd complexed by DOTA) | no uptake; also recorded: not in the plaque-free carotid artery | preferential uptake | ≥ 1 h | favourable biodistribution | rapid renal clearance |
